In the DeepSol protein solubility set:

Assay: soluble on expression in E. coli; label from the status in PepcDB or PDB records

| Sequence | soluble on expression in E. coli |
| --- | --- |
| MGSDKIHHHHHHMTENEFLSQEEIDKLLSDSDTGGVLTPEEKDMIGEIGNIAMGSAATTLSMILGRDIHITVPTVREEKMKNVKSDFSGEQVVVSVEYTEGLEGLNVLVLDKKLVAVIADLMMGGSGEVETEELDEIKLSAVGEAMNQMMGSAATSLSELLGITINISPPKVEILNFDDPNTQFPPVTDNPEKDVAVVEFEMEIEGLPKSKFYQVISADLVKKMYEYFTKKQSEAAEKKEKKEEKKVKVEPVEFAELKPSETRKTEVPSDKLELLLDIPLKVTVELGRTRMTLKRVLEMIPGSIIELDKLTGEPVDILVNGKLIARGEVVVIDENFGVRITEIVSPKERLELLNE | not soluble |
| MSLGDLEQKIIAMDLWHLALPVVSARDHGIGRVEGSCEIVVLRLVAEGGAEGFGEASPWAVFTGTPEASYAALDRYLRPLVIGRRVGDRVAIMDEAARAVAHCTEAKAALDSALLDLAGRISNLPVWALLGGKCRDTIPLSCSIANPDFDADIALMERLRADGVGLIKLKTGFRDHAFDIMRLELIARDFPEFRVRVDYNQGLEIDEAVPRVLDVAQFQPDFIEQPVRAHHFELMARLRGLTDVPLLADESVYGPEDMVRAAHEGICDGVSIKIMKSGGLTRAQTVARIAAAHGLMAYGGDMFEAGLAHLAGTHMIAATPEITLGCEFYQASYFLNEDILETPFRVEAGQVIVPDGPGLGARADPEKLEHYAVRRSGEGHHHHHH | soluble |
| MARSDSDKNGNGGNLGFEAELFKAADKLRGNMEPSDYKHVALGLIFLKYISDAFEAKHKALLAEDALAAEDKDEYLADNVFWVPKEARWSHLQANAKQPTIGTLIDDAMRAIEKDNASLKGVLPKDYARPALNKVMLGELIDLISGIGHLLPSPSGRGAGGEGQSFDILGRVYEYFLGQFAGAEGKRGGEFYTPRSVVRVLVEMLEPYSGRVYDPCCGSGGMFVQSEKFVQEHGGRIGDIAIYGQESNYTAWRLAKMNLAVRGIDADIRWNNEGSFHKDELRDLKADYILANPPFNISDWGGDRLREDVRWQFGVPPVGNANYAWLQHIYWHLAPNGTAGVVLANGSMSSNQSGEGEIRRAMLEADAVDCMVALPGQLFYSTQIPACLWFLARNKNPANGKTGGLRDRRGHVLFIDARKMGVLVDRTRRELSDEEIQKIARTYHAWRGEPDAGDYADVAGFCKSATLDEIRKHGHVLTPGRYVGAAEVEDDGEPFEEKMARLAAQWRQQRDEAAKLDAAIEANLKELGFWE | soluble |
| MGHHHHHHSHMYKRCKRGQDKCMMRPLSNPLTEAYNVQNLYQCLNCDDYHLCNGSLNCDPLVDREGIVCTVTGKYIQCNVRESPMCGAACLDVDIHPEDNTDCILRALFGDIVDIINKLDDIAEIKDKILAGDSLNEHIKKKIECTFPMCANIINCNSQGYSILCSMFVHIIMSIYANKTIYGHMLFKCTRNKKYDTIAKKIREKWMYLE | not soluble |
| MDQLQIKDLEMFAYHGLFPSEKELGQKFIVSAILSYDMTKAATDLDLTASVHYGELCQQWTTWFQETSEDLIETVAYKLVERTFESYPLVQEMKLELKKPWAPVHLSLDTCSVTIHRRKQRAFIALGSNMGDKQANLKQAIDKLRARGIHILKESSVLATEPWGGVEQDSFANQVVEVETWLPAQDLLETLLAIESELGRVREVHWGPRLIDLDLLFVEDQILYTDDLILPHPYIAERLFVLESLQEIAPHFIHPILKQPIRNLYDALKK | soluble |
| MAHHHHHHMADWQGWYQRMLDVHNRNVSLRCRICDLQRLDGNGVQFVDMQTERRLRILAQHRVGMGVLKLDADKYEDQADNVTFGTTKLSELLADARKAQLGEEYWPSVELKVRKPSGQSKAHYSLIDNERIEKRSRELYEKYRDAKKRSLFVTPMETWLEVKGMQVRKSVDNADEDGYTLDALQDMMDGDDEDKV | not soluble |
| MSLGDGNVEVAIIAYPYMSNFNEFYALVKSNARVSFVRKPKETAKADLVILPGSRNTLESLKWLVENGFVEQLRQRSMNILGICGGFQILGKKIVDPYGIEAGYPTEYEGLGIFDINVHYSKDKVVSMTTGISEYGEMNGYEIRRGVIKYMGEKPLLKITLRNGEKVSVEDGAKKDNIIGISVHGTLFSDGMKKLLKEFNINIHSQSMEEGHHHHHH | soluble |
| GVSIRSMKNFYDWIKEFVRDQGEFIAQQSGWLELERSSYAKLIAQTISHVLNGGSLLVSADSSRHWFLNYILSNLNPKDLKERPLLSVIDFNASSFYPKNDANLSLATIEMTYQNPMFWHVGKIENEGLKTILLSKIPSFLWLFEELKEDCLLLKEHDSLLDYKLLQLFKLFENALFSVLYNKVTL | soluble |
| ANGLFYSLRGNFSFARNKIIENDEPKPKYEYQDARGRRIDQTFGLVALGFFKDQDDIKNSPKQTFQSTVRPGDIKYKDINGDGVVDEYDKVAIGDPRTPEIMFGFGGTVAYKNFDVSLFFTGAAKTSFFLEGATVYPFLNGEGTWNVLREVYDNRWTSETAATAKYPIVLNANSYNNYQTSTMYMRNGSYLRLKSAEIGYTFKGRLIDKMFMDNIRLFCNGQNLLTLDYIKIVDPESNNGVGNYPMQRTINFGFQINFK | not soluble |
| GLVPRGSHMMEILRGSPALSAFRINKLLARFQAANLQVHNIYAEYVHFADLNAPLNDSEQAQLTRLLQYGPALSSHTPAGKLLLVTPRPGTISPWSSKATDIAHNCGLQQVDRLERGVAYYIEASTLTAEQWRQVAAELHDRMMETVFSSLTDAEKLFIHHQPAPVSSVDLLGEGRQALIDANLRLGLALAEDEIDYLQEAFTKLGRNPNDIELYMFAQANSEHCRHKIFNADWIIDGKPQPKSLFKMIKNTFETTPDYVLSAYKDNAAVMEGSAVGRYFADHNTGRYDFHQEPAHILMKVETHNHPTAISPWPGAATGSGGEIRDEGATGRGAKPKAGLVGFSVSNLRIPGFEQPWEEDFGKPERIVTALDIMTEGPLGGAAFNNEFGRPALTGYFRTYEEKVNSHNGEELRGYHKPIMLAGGIGNIRADHVQKGEIVVGAKLIVLGGPAMNIGLGGGAASSMASGQSDADLDFASVQRDNPEMERRCQEVIDRCWQLGDANPILFIHDVGAGGLSNAMPELVSDGGRGGKFELRDILSDEPGMSPLEIWCNESQERYVLAVAADQLPLFDELCKRERAPYAVIGDATEEQHLSLHDNHFDNQPIDLPLDVLLGKTPKMTRDVQTLKAKGDALNRADITIADAVKRVLHLPTVAEKTFLVTIGDRTVTGMVARDQMVGPWQVPVADCAVTTASLDSYYGEAMSIGERAPVALLDFAASARLAVGEALTNIAATQIGDIKRIKLSANWMAAAGHPGEDAGLYDAVKAVGEELCPQLGLTIPVGKDSMSMKTRWQEGNEQREMTSPLSLVISAFARVEDVRHTLTPQLSTEDNALLLIDLGKGHNALGATALAQVYRQLGDKPADVRDVAQLKGFYDAMQALVAARKLLAWHDRSDGGLLVTLAEMAFAGHCGVQVDIAALGDDHLAALFNEELGGVIQVRAEDRDAVEALLAQYGLADCVHYLGQALAGDRFVITANDQTVFSESRTTLRVWWAETTWQMQRLRDNPQCADQEHEAKANDTDPGLNVKLSFDINEDIAAPYIATGARPKVAVLREQGVNSHVEMAAAFHRAGFDAIDVHMSDLLGGRIGLGNFHALVACGGFSYGDVLGAGEGWAKSILFNHRVRDEFETFFHRPQTLALGVCNGCQMMSNLRELIPGSELWPRFVRNHSDRFEARFSLVEVTQSPSLLLQGMVGSQMPIAVSHGEGRVEVRDDAHLAALESKGLVALRYVDNFGKVTETYPANPNGSPNGITAVTTENGRVTIMMPHPERVFRTVANSWHPENWGEDSPWMRIFRNARKQLG | soluble |
| MGSDKIHHHHHHMEIRPEMFGQARAGAAWPDFGKPHVLRCDTGRSALKLALQCWAGRAGRDFTVWLPHYVCHSVAQAVRQAGHALAYYGHRPSEQIFSPPPTPQAGDLVLLVHYFGLRNRAALDWLSAHATRDFAVLEDCVQSPYTAGVGRLADFAISSLRKWWPTPDGATLASVYALDGLDLAASDEAFISQRMAAKQLRARGIGEERYLQWIDESESRLDDVVPRQASWLAASLLGEADIDVAMAARRENWFALAQGLAGLRGVAPLFRELAVDEIPLAYPVVVSATNRQKLRAALRDRRVFCPVHWDLESDAPEADTLLSARILSIPLDQRYAPADMRKVASMIGEFIAEELN | not soluble |
| MTDRKIRQISALLIEVYNGIMQVEDKYLRTTQFRDITVKEVHTIDAITMYDYKTTTAVARQLRLSPGTVTASIDKLVRKGYVVRLQSKDDQRVIRLGLTRRGRLIYRAHQSFHRQMTESFLNGMDPEQVDIIEHSLLNLQTFLQIADEKGDSNEND | not soluble |
| MKNLINWFEIPVTDMARAIAFYEQVMQISLRRETMDGADLAVFPYAEPGPGGALIKQDDVAPVAQGVVIYLHTADLLASIERVVLAGGKCVLEPMVPGDDIGTIALFIDSEGNRIGLHQPALEHHHHHH | not soluble |
| MGSDKIHHHHHHMSSIIENLQLAAQQVHLINLYQANSEVVYTGYIDRLAPDGVVVNTYDDAGLQDGAVFMRYDVIDEVEMMSEDLDNMAFRLENATTEGLNSVPQPTVALDDQRPVLTQLVTQAQTDHQVVLLVLEDNENYLEGQVQQVTDQTITFKTFDKFNFKNNGQQEIPLAAIQILEFCGNELLLESAFVKTIHTHRATIKVSEFDDVDHTLNNALNEHQLIAIRSADGSDMFFVGFINALNADSVLLNLIDMTGQFGGYTLCRRSLIESVTTQSDYLQTMRGFIELNRQYELNVQPVLNDERLFDATTDLFDSILRQAATFNNLVHITTENPMLPAMTGYPGTLTNGHFIFYNVDDDNQINHVGTMIELDQVVELSFGYMDAYLLEKRLKSTGNL | not soluble |
| PEREAVALVGTRRASPWALAFARRLARELAEAGLWVVSGLARGIDREAHLGALEAGGRTLGVLGSALDRVYPPENRPLAQRMDLLSEFPFGTGPKPEFFPRRNRLIAGLCRAVVVVEAPLDSGALITARHALELGKEVLAVPGRPTDERSLGANRLIQDGAYPVLSAEDVLSYLGMSARP | not soluble |
| MHLLRTQPGGFVPDDGIAHLAQTPAELVILCSGDSHLALLAEAARALPDDYPSLRLANPMQLQNHASVDLYVEEVLRHARVILLSLHGGIGYWRYGVEQLVALAERGALLIPVPGDDRPDPELSALGNLPAEQAERFWQYLRQGGLENAGQFYRCLASQCLGRDYAWREPQALPRVALFHPRHAEATLEHWRADWQAGRPVVALLFYRTHLQAANTAFIARFCERLAAQGLNPLPIALASLKESACLAQVEDWLERSDAALIVNTTGFAQSNPEAPELRPFRRDVPVLQAICSLDNRPLWLDNPQGLGPRDLAMHVALPELDGRIVTRPISFKGLAWRSERSESDVVCYLADDERMDFVAELARRWAELARKPNAEKRVALVLANYPTRDGRIGNGVGLDTPAAALNILRALRQQGYPVDGLPASGTELIRQLLGGVSNDLEHLDLRPCAQSLALDDYLACFARLPERNRQAVLARWGEPQQDPMFRDGRMMVAGLRYGLTFVGIQPARGYQLDPAAVYHDPDLVPPHGYLAFYFWLRHAYRADALLHVGKHGNLEWLPGKGVGLSAECWPDALLGPLPNIYPFIVNDPGEGAQAKRRTQAVIIDHLMPPLTRAESYGPLRDLERLADEFYDASLLDPRRAEQLRGEILVLLRDNRLDREIGLQLSDDPDSWLPQLDAYLCDLKESQIRDGLHVFGESPSGRLRLDTLLALLRVPRGDGKGANAGLLKSLADDLGLGFDPLACDMGEAWQGARPACLEERGGEPWRTLGDTRERLELLALHWIERCLGGESPPATWRASGEVLRGLCEQVAPTLDACGGAEIDGLLAALEGRFVPAGPSGAPSRGRLDVLPTGRNFFSVDVRNLPTPTAWRIGFQSANLLLERHLQEHGDHLRQLGLSVWGTATMRTGGDDIAQALALLGVRPVWQAGSQRVADFEILPVSLLDRPRVDVTLRVSGFFRDAFANLIRLFDAAVQAVAELDEAEELNPLAARVRLERQRLEAQGTAPAEARRQAGWRIFGAKPGAYGAGVQGAIEERLWETRADLAEVYLNWGGYAYGAADDGTPARERFAQRLERLQAVLHNQDNREHDLLDSNDYYQFQGGMLAAVETLRGAPVASYHGDHSQPDNPRIRTLKEELNRVVRARAVNPKWIAGMKRHGYKGAFELAATVDYLCAFDATSELIDDHQYALLADAYLLDAETREFVRQHNPQALRDMAERLVEAQRRGLWQEPGAYREALENL | not soluble |
